# In the supplement of paper PMC9170038:
# What was measured:
# [1] = system: K4 kissing-loop RNA reporter; assay: apparent KD of K4 kissing-loop reporter; higher = weaker reporter binding; details: Eterna round: R107;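 also: bound reporter read as fluorescence of individual clusters on recovered sequencing chips by microscopy, with normalized cluster intensities fitted with a binding model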
# Method: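 RNA-MaP round R107: designed RNA switches with theophylline, tryptophan, arginine or FMN aptamers are transcribed on-chip within common flanks. They are titrated with a labelled K4 kissing-loop RNA reporter in RNA-MaP buffer (100 mM Tris pH 7.5, 80 mM KCl, 4 mM MgCl2), without ligand or with the indicated ligand. Median apparent KD per design.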
# MS2 coat protein = assay: apparent KD of MS2 coat protein; designed switch direction (-1 OFF switch, 1 ON switch): -1; higher = weaker reporter binding
# Outline: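 Designed RNA switches with common flanks were made on Illumina chips by stalled E. coli RNA polymerase. Titration with SNAP-549-labelled MS2 coat protein doubled from 0.7 or 1.5 nM up to 3 µM. Apparent KD is each design's median over clusters after curve-fitting normalised fluorescence.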
# [2] = input ligand: theophylline 20 uM
# [3] = input ligand: tryptophan 2.4 mM
# [4] = input ligand: microRNA oligo, concentration not stated
Sequence,apparent KD of K4 kissing-loop reporter ([1]; input ligand: FMN 200 uM),apparent KD of K4 kissing-loop reporter ([1]; input ligand: arginine 13.2 mM),apparent KD of K4 kissing-loop reporter ([1]; input ligand: none),"apparent KD of K4 kissing-loop reporter [1, 2]","apparent KD of K4 kissing-loop reporter [1, 3]",apparent KD of MS2 coat protein (MS2 coat protein; input ligand: FMN 200 uM),apparent KD of MS2 coat protein (MS2 coat protein; [4]),apparent KD of MS2 coat protein (MS2 coat protein; input ligand: none),"apparent KD of MS2 coat protein (MS2 coat protein; Eterna round: R95, input ligand: microRNA oligo, concentration not stated)"
AAAUGUUUGUAUUUGAACAAUUUCCUUAGAGAGGAUAUUGGUAAUACAAGAAGGCUCUGAUGGGAGUGAUGUUCCCAUAACGCGG [Exclusion FMN A GF14],110 nM,114 nM,119 nM,126 nM,91 nM,–,–,–,–
AAAUUUAAUAUAUUUAAUUAAUUAUGUGAUACCAGACAUUAAUAAGUCCCUUGGCAGCACAAUGCAGUGAUGUUGCAUAUAAUAA [JR_SSTheophyA_Sub011],69.4 nM,115 nM,73.5 nM,84.8 nM,65.4 nM,–,–,–,–
AAAUUUAUAUUAGAUACCAGCAUAUUGAAAGUUUAUUAUGACAAGAGUGAUGUUCUUGUAUGCCCUUGGCAGCUGGUAUGGGUUU [KL-XTheo-B25],114 nM,107 nM,104 nM,110 nM,110 nM,–,–,–,–
AACAAGGGAUGUCAGUGAUGUUGUACGUCGCGAGGACCGGUACGGCCGCCACUCGUAAUACACAGAUGAGGGUUCUUUCUCUGAU [theeternabot_sameState_KL_Trp_A_49],305 nM,179 nM,268 nM,265 nM,228 nM,–,–,–,–
AACCACUCGUUACAUCACUAUCGAGUGGAACGAGGACCGGUACGGCCGCCACUCGAUAAGAUGCAGUGAUGUUGCAUCUAAGAAU [KL-SSTryp-A (BrourdMod)5 #dotplot2 strengthened],208 nM,168 nM,183 nM,192 nM,141 nM,–,–,–,–
AACGACUGGAUGAAUAACAUCUAGUCGAUUCGAGGACCGGUACGGCCGCCACUCGAGCUAACUGCGAGUGAUGUUCGAUAAUAAA [#OpenEnded 3],347 nM,433 nM,390 nM,524 nM,96.6 nM,–,–,–,–
AACGCUUGAAUAACAAGCGAAAUAAAUUCGCGAGGACCGGUACGGCCGCCACUCGCUAACUGCGAGUGAUGUUCGAUAAUAAAAU [Mat - Mod of OpenEnded 3 - D15],103 nM,66.1 nM,136 nM,234 nM,71 nM,–,–,–,–
AACUCUCAGGCAGCCGAGUGAUGUUCGGCCCGAGGACCGGUACGGCCGCCACUCGGGCCUGAGAGAGGUUAUCAAAGAUAGCCAA [#01 K4 Tryptophan A Same State],194 nM,75.2 nM,89.8 nM,142 nM,131 nM,–,–,–,–
AACUGUCAAGGACAACAUUACUGAGGUGAUACCAGCAUCGAAAGAUGCCCUUGGCAGCACCGACUUGCAGUGAUGUUGCAAGUAA [BrourdMod 11 - Jieux - Exclusion - Theophylline A],271 nM,219 nM,249 nM,322 nM,247 nM,–,–,–,–
AAGAAUGCAGGAAGGAGCGGCGGACGGAGUGAUGUUCCGGCUAGUGAUGUUAGCAAACACCGCCAGGUAGGUCGCCUGCUGCCCU [Same State Arginine B GF 6],207 nM,127 nM,171 nM,153 nM,151 nM,–,–,–,–
AAGCAGUCACUCGUAACCAUCGAAGAUGGUCGAGGACCGGUACGGCCGCCACUCGGAGUGAUGUUCCGAAGACUGCAAAAUAAAA [#SwitchBubble 12],237 nM,238 nM,299 nM,292 nM,607 nM,–,–,–,–
AAGCAGUCGCUCGAAGCCAUCGAAGAUGGGCGAGGACCGGUACGGCCGCCACUCGGAGUGAUGUUCCGAGGACUGCAAAAUAAAA [MatMod 5 - Jieux - Exclusion - Tryptophan A],418 nM,246 nM,321 nM,263 nM,409 nM,–,–,–,–
"UUUUUAUAUGAAGGAUAUACUUAACAUGAGGAUCACCCAUGUGGUGUUGUGAGUGAGUGAGUUUAGUAGAAGGUCAAGGAUUUU [JMF's solution 35] (Eterna round: R96, puzzle: Exclusion NG 2)",–,–,–,–,–,598 nM,456 nM,161 nM,–
"UUUUUAUAUGAAGGAUAUACUUAACAUGAGGAUCACCCAUGUGGUGUUGUGAGUGAGUGAGUUUAGUAGAAGGUCAAUGAUUUG [JMF's solution 63] (Eterna round: R96, puzzle: Exclusion NG 2)",–,–,–,–,–,894 nM,237 nM,563 nM,–
"UUUUUAUAUGAAGGAUAUACUUAACAUGAGGAUCACCCAUGUGGUGUUGUGAGUGAGUGAGUUUAGUAGAAGGUCAAUUAUUAU [JMF's solution 15] (Eterna round: R96, puzzle: Exclusion NG 2)",–,–,–,–,–,719 nM,390 nM,271 nM,–
UUUUUGUCAGGAUAUGAGUAGUAGAACAAUAGUACUACUACUCAGAAGGGACAUGAGGAUCACCCAUGUUCCUC [Fiskers Ex 4 Super stable 44 mod 18] (puzzle: Exclusion 4),–,–,–,–,–,–,–,–,14.4 nM
